The source of these data is article PMC7417313.

Common to all, as to test: SPR; His-tagged rH fragment held on a Ni-charged NTA chip (BIAcore X or 3000; 500-1,000 RU, reloaded for each injection), C3 protein injected in HBS-P (10 mM HEPES pH 7.4, 150 mM NaCl, 0.005% P20) at 5 μL/min, 25°C; reference cell with nickel only; equilibrium levels fitted to a one-site equation
Background: SPR reads the build-up and loss of mass on a sensor chip optically.

Test [1] has as its target recombinant Factor H fragment rH 1-6 (human).
Test [2] deals with full-length recombinant Factor H (human) (UniProt P08603).
full-length recombinant Factor H (human), sequence (P08603 19-1231): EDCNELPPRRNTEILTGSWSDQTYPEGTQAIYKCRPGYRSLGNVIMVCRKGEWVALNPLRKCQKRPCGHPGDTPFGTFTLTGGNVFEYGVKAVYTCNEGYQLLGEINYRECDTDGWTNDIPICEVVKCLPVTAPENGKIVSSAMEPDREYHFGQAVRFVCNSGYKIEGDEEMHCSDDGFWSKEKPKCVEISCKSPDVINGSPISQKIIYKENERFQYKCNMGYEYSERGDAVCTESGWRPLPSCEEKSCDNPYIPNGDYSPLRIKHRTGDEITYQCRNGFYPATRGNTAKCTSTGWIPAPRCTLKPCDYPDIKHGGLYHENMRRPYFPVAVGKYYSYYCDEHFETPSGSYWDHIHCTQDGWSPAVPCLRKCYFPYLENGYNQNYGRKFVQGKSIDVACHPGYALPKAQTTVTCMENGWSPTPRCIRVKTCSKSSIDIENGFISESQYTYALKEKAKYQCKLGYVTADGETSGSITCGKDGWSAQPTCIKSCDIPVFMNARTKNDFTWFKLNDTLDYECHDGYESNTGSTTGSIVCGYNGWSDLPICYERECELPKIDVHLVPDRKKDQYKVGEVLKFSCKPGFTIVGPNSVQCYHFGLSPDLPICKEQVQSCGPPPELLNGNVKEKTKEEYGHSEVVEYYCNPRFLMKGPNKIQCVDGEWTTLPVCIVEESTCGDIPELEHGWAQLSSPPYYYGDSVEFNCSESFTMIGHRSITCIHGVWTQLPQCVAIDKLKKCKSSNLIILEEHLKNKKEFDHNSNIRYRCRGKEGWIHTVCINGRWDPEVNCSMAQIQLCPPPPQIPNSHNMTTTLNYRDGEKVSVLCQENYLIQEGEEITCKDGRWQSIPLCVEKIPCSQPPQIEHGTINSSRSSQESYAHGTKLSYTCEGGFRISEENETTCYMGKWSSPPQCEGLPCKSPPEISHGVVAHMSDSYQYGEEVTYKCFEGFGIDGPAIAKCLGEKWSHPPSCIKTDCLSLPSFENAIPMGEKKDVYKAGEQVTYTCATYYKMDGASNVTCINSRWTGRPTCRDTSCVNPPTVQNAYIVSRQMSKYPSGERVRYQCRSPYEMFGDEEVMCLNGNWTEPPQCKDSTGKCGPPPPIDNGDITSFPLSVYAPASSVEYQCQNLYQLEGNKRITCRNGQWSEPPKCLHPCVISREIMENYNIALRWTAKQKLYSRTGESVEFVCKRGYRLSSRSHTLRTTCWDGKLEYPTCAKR
For test [3], the target named is recombinant Factor H fragment rH 1-7 (human).
Test [4] has as its target recombinant Factor H fragment rH 1-8 (human).
In test [5] the target is recombinant Factor H fragment rH 16-20 (human).
For test [6], the target named is recombinant Factor H fragment rH 17-20 (human).
Test [7] concerns the target recombinant Factor H fragment rH 18-20 (human).
In test [8] the target is recombinant Factor H fragment rH 19-20 (human).

C3d, sequence (P01024 1002-1303): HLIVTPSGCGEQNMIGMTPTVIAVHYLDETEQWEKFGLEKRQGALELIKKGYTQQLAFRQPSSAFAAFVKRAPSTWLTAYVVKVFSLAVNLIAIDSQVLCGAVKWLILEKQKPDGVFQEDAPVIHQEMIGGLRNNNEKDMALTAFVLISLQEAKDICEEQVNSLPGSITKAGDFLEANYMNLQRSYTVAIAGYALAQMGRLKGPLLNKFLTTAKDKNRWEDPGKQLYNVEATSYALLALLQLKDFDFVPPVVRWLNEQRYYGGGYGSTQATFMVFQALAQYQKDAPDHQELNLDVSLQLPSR

The Kd is the free concentration of one partner at which half of the binding sites on the other are occupied at equilibrium, for simple one-to-one binding. In the case of “complement component C3 (native C3) (natural protein)”, in test [1], the Kd is 400 nM.
Take C3b (domain or fragment): the dissociation constant (Kd) stood at 95 nM in test [2]; 80 nM in test [1]; 80 nM in test [3]; 150 nM in test [4]; 2400 nM in test [5]; 2100 nM in test [6]. Besides, the dissociation constant Kd in test [7] was determined as 1900 nM; in test [8], 1700 nM.
Regarding iC3b (domain or fragment), the Kd in test [1] was 5000 nM; in test [8], 2800 nM.
Turning to “C3d (from UniProt P01024 1002-1303) (domain or fragment)”, the Kd in test [8] came to 1900 nM.
